Data: a protein production outcome set (Wang et al. 2014)

assay: label from the status in PepcDB records

For “MIRLSNENTIFFMDKENVPIASCQSGDTVIFETKDCFSDQITNEEQALTSIDFNRVNPATGPLYVEGARRGDMLEIEILDIKVGKQGVMTAAPGLGALGESLNSPTTKLFPIEGDDVVYSTGLRLPLQPMIGVIGTAPPGEPINNGTPGPHGGNLDTKDIKPGTTVYLPVEVDGALLALGDLHAAMGDGEILICGVEIAGTVTLKVNVKKERMFPLPALKTDTHFMTIASAETLDAAAVQATKNMATFLANRTALSIEEAGMLLSGAGDLYVSQIVNPLKTARFSLALHYFEKLGVDLCN”, which protein production is on record?
The protein production was “not failed”.

For “MIRNIVFDLGGVLIHLNREESIRRFKAIGVADIEEMLDPYLQKGLFLDLESGRKSEEEFRTELSRYIGKELTYQQVYDALLGFLEEISAEKFDYIDSLRPDYRLFLLSNTNPYVLDLAMSPRFLPSGRTLDSFFDKVYASCQMGKYKPNEDIFLEMIADSGMKPEETLFIDDGPANVATAERLGFHTYCPDNGENWIPAITRLLREQK”, which protein production is on record?
The protein production was “not failed”.

For “MIRRLLRMVRGRTGQRLPDGGIQQDEASKIETAGDSDAREQRAADSDTTREMGTDTGTGLSTGRFVDENVRLLLNGLSQPTFVLDAEGEVVAWNEALAELTGATRDEAVGHDHASEMFYPDGRRAKTLADKVLEHPETVHEEYDVELEAPEMGRVADTSTMLDQYGDEKHIYFAATPQYRDGELVGVVETVIDRTEEVERRLAIERLVGTLGSTLESLRSGELDARAELEDEHAAALDDELLDVVDALNAFAEEFQTLSGRVEQQADRLDDAVDRVVEAAAEISDAVGEQNELVDDAVSEMQTFSAQMEEVAATAQDVDEAASDAKETAEHGLETGQDAREAAKEVTDISEELVDDITALQARMDDIESVVEVVSDVADQTNILALNANIEAARADESGEGFAVVADEVKSLADETQSHTDDITDSIEKLREQTDRTVSAAMTSSERVDRADQRIQEMFDAFEDIADAVEAAADGIAEVAQANDDQAASIEEVTATLETVREHSERAETAAEDVESAATSQAESIDALIKRVERLREGTADAADAA”, which protein production is on record?
Its protein production is “failed”.

Which protein production does the source give for “MIRSLLLASAACALAFPAAAETVAIVNARLEPVSSPAIPNGTLVIKDGKIAALGASIQVPAGARVIDAKGGVVTPGLIAPSSNLGASEISGVRETRDDGTGSALSAAFDISYGVNPASTFLGLARDGGITGSAVTPVLSGTGGGAHEHADDGVVEEMTAGAHGDGDPPLFGGQAAFIRLKAGSPDIVEARKLAVTVSLGESGARAAGGSRGANLVLLRSALEDARAFASRRAAFEQGATRDFGLSRLDLQALIPVVQGKTPLLIRVSRAADIRQALKFAAEERIKIVLEGVEEGWMVADEIAKAGVPVILDPQDDLPGSFETLGSRLDNAARLHAAGVSVAINGSRDFNNLRQERLNAGLAVAHGLPYPAALAAVTLVPARIWGQADKVGSLEVGKLADVVVWNGDPLETTSWPTAVLIGGVEQPKDGRHEQLKARYAAGDQNGYPPAYR” here?
Its protein production is “failed”.

For “MIRVGYLGPEATFTNMAVSRFFPEAEHVPYRTIPDCMDAAANGNVDYAVVPLENAIEGSVNITIDYLVHEQPLSIVGEITVPIQQHLLVHPQYAEVWEEVYAVHSHPHAIAQCHKFLNEELKGITARDMTSTSAAAQYVKEHPEEKIAAIANEAAAEKYGLTIVRRSIHTHKNNHTRFLVLHKKKKAILSNNGENRGEKTTLMITLPADYAGALYQVLSAFAWRKLNLSKIESRPMKTGLGNYFFLIDVDKAYDDVLLPGVTMELEALGFSVTVLGSYSSYWL”, which protein production is on record?
The protein production was “failed”.

With “MISAGDFKNGVTFELDGQIFQVIEFQHVKPGKGAAFVRTKLKNIVTGATIEKTFNPTDKMPKAHIERKDMQYLYNDGDLYYFMDTETFEQLPLGKDKIGDALKFVKENEIVKVLSHKGNVFGIEPPNFVELEVTDTEPGFKGDTATGATKPAIVETGASIKVPLFVNKGDIIRIDTRTGEYMERV” as the sequence, how does the protein production read?
Its protein production is “not failed”.

For “MISEIIEFLESNFFYLHPGYTPLNTVVFGIVLGIAVLIILRMFRWLKKDPGELLVPLLPFIFLGSGARALVDNGIYPLTHLLVTPGIYILVGLTTIATLIAAVKLEETRGWDYRKLIFATGSVLAAPNLISIRHIDPVPFLSVLGVFSVFSAAFYALSLRWEFLRGRMNLPVIYAHLFDASSTYVAVDWYGYIEQHVLPSALTGLTGTAMVMFPLKMAVILTALYAIDRYVESDMDSEALKLVIFILGLAPGLRNFLSLSMAV”, which protein production is on record?
Its protein production is “failed”.

With “MISFSVMALVFGVVFLAELPDKTALAGLVLGTRYRASYVFAGVAAAFALHVALAVAAGSVLTLLPQQIVHALTGVLFLGGAAVLLMKKGEGEEEIRKPENQSFWKVSSAGFMLILVAEFGDLTQIMTANLAARYDDPLSVGLGAVLALWAVAGLGIVGGRALMKRVPLRLITKVAALLMLALGAWSLYEAVAG” as the sequence, how does the protein production read?
Its protein production is “failed”.

With “MISKHQAVKKIFDQISDKYDLIDTIISLGLDQRWRRSLISNLKLMPGLQCLDCGAGSGKVTELIMESCDSCSVTALDITDSMFNPELTKRCKFVVSPAESLPFSDETFDRVSSAFLTRNLADVDKYFSEVYRVLKPGGIFVNLDIFNPTKPVFSQFFSLYFYRMVPFFGNHATHSRNYSYLANSVKFFYSPFILSKKLESKGFIVEPKDLFFGSVFMHIAQKKLEHHHHHH” as the sequence, how does the protein production read?
Its protein production is “not failed”.

For “MISKVIEALAVFTTSVISSMGYGGIVLLMAIESACIPLPSEIIMPFAGYLVYRGEMTLHGAALAGAIGCVVGSIPAYYLGQFGGRPLIEKYGRYVLLSHKELDLADRLFQRWGQWVVFAGRLLPVVRTFIAFPAGVSRMPMGKFIAYTFVGSYPWCYALAWVGEWAGEAWHTDPRVKAVYHRFELVIVVAGVLAVAWFVWHKVKEARRARVPAAADEG”, which protein production is on record?
The protein production was “failed”.

With “MISLKNFGLLFWKRFSENKLNQVAGALTYSTMLAMVPLVMVIFSIFSAFPVFNEVTGELKEMIFTNFAPSASDMVGEYIDQFVSNSKKMSAVGIVSLIAVALMLINNIDRTLNSIWHNSQSRSPLSSFAIYWMILTLGPLIIGVSIGISSYIKIMFEQSEHLSLGLKLLSFVPFLFTWFIFTLIYTVVPNKKVKIKHSAYGAFLAAIFFTLGKQAFTWYIVTFPSYQLIYGAMATLPIMLLWIQISWLVVLVGAQLASTLDEIGEQIEQ” as the sequence, how does the protein production read?
Its protein production is “failed”.

For “MISSATKTLQTNNKTIYVAILSTLTFFLFLDYIPGLQAWSAWVTPPVALFLGLIFALTCGQAHPKFNKKTSKYLLQYSVVGLGFGMNLQSALASGKEGMEFTVISVVGTLLIGWFIGRKIFKIDRNTSYLISSGTAICGGSAIAAIGPVLRAKDSEMSVALGTIFILNAIALFIFPAIGHALDMTEHQFGTWAAIAIHDTSSVVGAGAAYGEEALKVATTIKLTRALWIIPMAFATSFIFKSKGQKISIPWFIFFFILAMIANTYLLNGVPQLGAAINGIARKTLTITMFFIGASLSLDVLRSVGVKPLIQGVLLWVVISLSTLAYIYFV”, which protein production is on record?
The protein production was “failed”.

For “MISSLKLTEMCTHCGFCLETCPTYVVTRNEVHSPRGRIEAVRIGINSTGFETCMYCRLCETACPAGVKYAQIITPVRKSSLKKTVMEKMLENPKLLAKSLKLLSKANSYPEVQRFVKFVKPNEVSEPLETDGEGDIILFPGCIESVIFRKTVEKAYKYLGKKYKVKIINGCCGLAHISNGNYEGAKKLAIRLAEKVKGKKVITLQSNCAAFMKEYKEWFGIEINAYDFAEFLIKEGIELPKVNDTFTVHYPCHAYRQKLVSHIRNVAEKMGIKIREMEDPHFECGAGGDYWLSHPKLSDMVMNVKRGKIAKSEAKKVIVTNSVCALAIRSMGYDVYHIADLLDT”, which protein production is on record?
Its protein production is “failed”.

Which protein production does the source give for “MISTLNEIMKCIEDNDTIIIHRHVRPDPDAYGSQLGLKYYIQQKFPQKQVFAVGEAESSLSFIGELDNIDDKTYQDALVIVCDTANAPRIDDERYSTGSKLIKIDHHPAVDQYGDINLVNTNASSTSEIIYDLISHFNDEAIVNKDIASVLYLGIVGDTGRFLFNNTSEHTMEIAGKLIGHDIDHNALLNKMMEKDPKMLPFQGYVLQHFELMDDGFCQVKITEDVLEQFGIQPNEASQFVNTIADIKGLKIWVFAVDEGSEIRCRLRSKGQLIINDIAQDFGGGGHPNASGVSVNSWDEFEQLATALRTKLN” here?
Its protein production is “failed”.

For “MISWRDRLTKALPQIAVVVHDLLMVWVCWQLLHAGRYSMLRDAPNLPLWDWRTAVVLVAQGLVFWKMGLYRGLWRFASVPDLWNIFKASFLGLVAIVLALAYDRLDGVPLSVLVVYPFALSALLGTPRLLYRAWKDYQIAHSGDAAQRVLILGAGRAAEGLVRDLRRTGAFVPVGYLDDANNLHGAKIQGLNVLGNLDQAAAIAKETAAKLLVIAIPSLDASGMQRVVAICESTGLPFRMVPKLINVLEGRSLPGELKEVAIEDLLNRKPVTPDWRLIRDWLTNKTVMVTGAGGSIGSEVCRQCARHGARRIVLLEIDELALLTIDSDLRRLFPDIEVVRVLGDCGDPAVVAHALNTATPDAVFHAAAYKQVPLLEEQLREAVRNNVLATENVARACQRARIETFVFISTDKAVEPVNVLGASKRYAEMICQSLDARDAPTRFITVRFGNVLDSAGSVVPLFREQIRQGGPVTVTHPDVTRYFMTIPEACQLVIQAAASASHGAIYTLDMGEPVPIRLLAEQMIRLAGKQPGKDVAILYTGLRPGEKLHETLFYSDEAYRPTAHPKILEAGVREFSHEQVLQLVMRLREAVNRYDIKAMETVLGSLMPDFAAARRKVDARSDTVVPFPAREVRRL”, which protein production is on record?
The protein production was “failed”.

Which protein production does the source give for “MITDIPWNRGEWTNQPAAVVEQAGDLLVTAAESSDAWRVTSYGFIHDTEHALLAPLPQDSAMEVEFTAAFSQQFDQAGIFVRISAEHWIKAGVEFADGAAQVGAVVTNRFSDWSLAPVPDWNGERVRMRVSRSGDALTIRAASGSNELRLVRVVPLAPDLVTVAGPFTCAPTRAGLTVPFHSWRAKPADSQLH” here?
The protein production was “failed”.

Which protein production does the source give for “MITFKEFVDYWFEAYASTAVKPSTQKRYRQLLKPALRAIGNKPLNKVKPLDIQNIYIALAGTQSNCTILKLHRLLHEIFKHAQMWEYISDNPVKKVVPPTPELEHHHHHH” here?
The protein production was “not failed”.

With “MITIDPEYFEILKEFGAERVVRCYQCGTCTGICPVSTTDASFPRKPVLLSRFGVGEVIENFEEAWLCLSCNLCTEFCPRDVKPSETMLAIKRVLVENGKTPPYIRDFFQLEHHHHHH” as the sequence, how does the protein production read?
The protein production was “failed”.

For “MITIEISINLELIISFYLLFILGANNVANAIGTAYASRATTYRNLLILFSISVIIGSLFAKNVGSTVNSLSSDALTALIISALVMTLSTYKKVPISLHTVIICSLIGLNFNSSNLYVFGEILLSWILSPIIAVVIAYILYSAYEKIDISILKKITMIRYFLLISAAVVAFNLGSNDLPTVLGTFTTSQIIYIIGAIFLCLGAYLYGNRVSETLSMITNLSVSSAFIAQLSGGLAVTIFTALGMPVSTTQAIVGGILGVGLTKGIKTVRWKVLKNIIFWWVVAPIIALIIGFIINRMI”, which protein production is on record?
Its protein production is “failed”.
